Measured values published in paper PMC5686127 (2017).

Experiments:
[1] = molecular target: T1, CHD4 PHD1-linker (aa 361–443) (human, UniProt Q14839 361-443); assay: 75 mM NaCl
[2] = molecular target: CHD4 linker-PHD2 (aa 414–503) (human, UniProt Q14839 414-503); assay: 150 mM NaCl
[3] = molecular target: CHD4 PHD1 (aa 362–417) (human, UniProt Q14839 362-417); assay: 150 mM NaCl
[4] = molecular target: CHD4 PHD2 (443–498) (human, UniProt Q14839 443-498); assay: 150 mM NaCl
[5] = molecular target: T1, CHD4 PHD1-linker (aa 361–443); assay: 150 mM NaCl
[6] = molecular target: CHD4 PHD1/2 (aa 361–503) (human, UniProt Q14839 361-503); assay: 150 mM NaCl
CHD4 PHD1/2 (aa 361–503), sequence (Q14839 361-503): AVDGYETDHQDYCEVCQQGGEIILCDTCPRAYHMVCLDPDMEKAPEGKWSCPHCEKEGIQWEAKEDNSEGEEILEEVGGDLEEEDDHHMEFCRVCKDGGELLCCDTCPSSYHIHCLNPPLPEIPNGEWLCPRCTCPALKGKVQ

T1 sequence (Q14839 361-443): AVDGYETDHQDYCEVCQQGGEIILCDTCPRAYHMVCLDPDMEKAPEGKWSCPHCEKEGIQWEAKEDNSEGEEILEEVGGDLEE
CHD4 PHD2 (443–498), sequence (Q14839 443-498): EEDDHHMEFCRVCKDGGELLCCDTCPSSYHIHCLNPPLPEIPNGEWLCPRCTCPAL
CHD4 linker-PHD2 (aa 414–503), sequence (Q14839 414-503): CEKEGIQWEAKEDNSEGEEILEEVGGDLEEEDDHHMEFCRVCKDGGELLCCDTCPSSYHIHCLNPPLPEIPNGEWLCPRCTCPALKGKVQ
CHD4 PHD1 (aa 362–417), sequence (Q14839 362-417): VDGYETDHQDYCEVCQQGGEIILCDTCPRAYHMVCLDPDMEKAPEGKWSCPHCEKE

Kd [1]: 300 nM | Kd [2]: 270 nM | Kd [3]: 18000 nM | Kd [4]: 3000 nM | Kd [5]: 500 nM | Kd [6]: 220 nM
Binder: ARTKQTARKSTG [histone H3 peptide (aa 1–12)]
